Reference: publication PMC11456556

Tests used:
[1] = biological target: T1, alpha-synuclein monomer (human, UniProt P37840 1-140); assay: DNase I footprinting
[2] = biological target: beta-synuclein (UniProt Q16143 1-134); assay: MST
[3] = biological target: gamma-synuclein (UniProt O76070 1-127); assay: MST
[4] = biological target: T1, alpha-synuclein monomer; assay: EIS

beta-synuclein, sequence (Q16143 whole entry): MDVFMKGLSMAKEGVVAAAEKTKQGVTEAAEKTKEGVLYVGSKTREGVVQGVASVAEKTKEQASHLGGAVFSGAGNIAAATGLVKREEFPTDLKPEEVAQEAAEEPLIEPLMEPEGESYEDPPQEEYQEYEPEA
gamma-synuclein, sequence (O76070 whole entry): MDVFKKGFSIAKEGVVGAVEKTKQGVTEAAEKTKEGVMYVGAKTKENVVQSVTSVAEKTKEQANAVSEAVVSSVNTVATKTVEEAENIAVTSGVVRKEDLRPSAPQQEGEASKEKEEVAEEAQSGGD

B1: a-syn-1 (5'-fluorescein) (ssDNA)
DNA: ATAGTCCCATCATTCATTGTAAGGAAACGCTACGGGGTGGGTACGGCAAGATATTAGCAAGTGTCA
Q: Which Kd [1] does the source give for B1 here?
A: The Kd was 28 ± 14 nM.

B2: a-syn-1 (5'-Cy5) (ssDNA)
DNA: B1 DNA
Q: Does B2 bind [2]?
A: Result: no binding

Q: Does B2 bind [3]?
A: Result: no binding

B3: a-syn-1 (thiol, on gold electrode) (ssDNA)
DNA: B1 DNA
modifications: thiol (end not stated), immobilized on gold
Q: For B3, which Kd [4] is on record?
A: Its Kd is 70 ± 3 nM.
